{"source": "patent US20170137467A1", "about": "(CHROMOTEK, published 2017)", "experiment_in_all_cases": "peptide library pulldown on immobilized Nb, LC-MS of supernatant; ratio vs GFP-Nb control (1 = not captured, 0 = captured)", "key": {"[1]": {"biological_target": "T1, BC2T Q11(I/L) library peptide, version 1 (N-terminal acetyl, C-terminal amide)", "T1 construct": "Ile and Leu versions are isobaric; two versions resolved but not assigned; also called I/L1", "source_text": "(§1) In total, 12 different BC2T libraries displaying all 20 proteinogenic amino acids in one single position of the peptide were used in immunoprecipitation experiments. […] The direct comparison with the GFP-Nb made it possible to determine the quantitative degree of peptide capture without the need of labeled standards. […] The more peptide was captured the more the value approximates 0. It was not possible to discriminate between isoleucine (I) and leucine (L) peptide versions since these peptides are isobaric.\n(§2) To investigate the binding specificity of the BC2T and derived mutants peptide libraries for each amino acid position of the sequence […] (SEQ ID NO:4) were synthesized with acetyl and amide groups located at the N-termini or C-termini respectively (Intavis). […] Incubations were performed in 300 μl PBS/0.01% CHAPS for 1 h on a HulaMixer (Life Technologies). Subsequent to a centrifugation step 10 μl supernatant were analyzed in a LC-MS procedure. Peptides were separated using an UltiMate3000 RSLCnano System (Thermo Scientific), composed of a C18 PepMap100μ-Precolumn (300 μm×5 mm; particle size: 5 μm; pore size: 100 Å—Thermo Scientific) and a C18 analytical column (Acclaim Rapid Separation LC (RSLC) Column: 150 mm×5 mm; particle size: 2.2 μm; pore size: 100 Å—Thermo Scientific). A step gradient was applied starting at 8% and ending after 20 min at 30% eluent B (80% acetonitrile, 20% H₂O, 0.1% formic acid)."}, "[2]": {"biological_target": "T2, BC2T W10S library peptide (human)", "T2 construct": "also called BC2TW10X: S", "T2 peptide": "Ac-PDRKAAVSHSQQ-NH2", "source_text": "as §1, §2"}, "BC2T H9A library peptide": {"biological_target": "T3, BC2T H9A library peptide (human)", "T3 peptide": "Ac-PDRKAAVSAWQQ-NH2", "source_text": "as §1, §2"}, "[3]": {"biological_target": "T4, BC2T H9C* library peptide (human, SMILES …)", "T4 construct": "also called C(Abu)", "T4 peptide": "Ac-PDRKAAVS[GABA]WQQ-NH2", "source_text": "as §1, §2"}, "[4]": {"biological_target": "T5, BC2T W10(I/L) library peptide, version 1 (N-terminal acetyl, C-terminal amide)", "T5 construct": "Ile and Leu versions are isobaric; two versions resolved but not assigned; also called BC2TW10X: I/L1", "source_text": "as §1, §2"}, "BC2T S8W library peptide": {"biological_target": "T6, BC2T S8W library peptide (human)", "T6 construct": "also called BC2TS8X: W", "T6 peptide": "Ac-PDRKAAVWHWQQ-NH2", "source_text": "as §1, §2"}, "[5]": {"biological_target": "T7, BC2T Q11N library peptide (human)", "T7 peptide": "Ac-PDRKAAVSHWNQ-NH2", "source_text": "as §1, §2"}, "[6]": {"biological_target": "T8, BC2T Q12C* library peptide (human, SMILES …)", "T8 construct": "also called C(Abu)", "T8 peptide": "Ac-PDRKAAVSHWQ[GABA]-NH2", "source_text": "as §1, §2"}, "[7]": {"biological_target": "T9, BC2T Q12N library peptide (human)", "T9 peptide": "Ac-PDRKAAVSHWQN-NH2", "source_text": "as §1, §2"}, "[8]": {"biological_target": "T10, BC2T W10K library peptide (human)", "T10 construct": "also called BC2TW10X: K", "T10 peptide": "Ac-PDRKAAVSHKQQ-NH2", "source_text": "as §1, §2"}, "BC2T S8N library peptide": {"biological_target": "T11, BC2T S8N library peptide (human)", "T11 construct": "also called BC2TS8X: N", "T11 peptide": "Ac-PDRKAAVNHWQQ-NH2", "source_text": "as §1, §2"}, "[9]": {"biological_target": "T12, BC2T Q12G library peptide (human)", "T12 peptide": "Ac-PDRKAAVSHWQG-NH2", "source_text": "as §1, §2"}, "BC2T S8M library peptide": {"biological_target": "T13, BC2T S8M library peptide (human)", "T13 construct": "also called BC2TS8X: M", "T13 peptide": "Ac-PDRKAAVMHWQQ-NH2", "source_text": "as §1, §2"}, "[10]": {"biological_target": "T14, BC2T Q11F library peptide (human)", "T14 peptide": "Ac-PDRKAAVSHWFQ-NH2", "source_text": "as §1, §2"}, "BC2T H9D library peptide": {"biological_target": "T15, BC2T H9D library peptide (human)", "T15 peptide": "Ac-PDRKAAVSDWQQ-NH2", "source_text": "as §1, §2"}, "BC2T H9V library peptide": {"biological_target": "T16, BC2T H9V library peptide (human)", "T16 peptide": "Ac-PDRKAAVSVWQQ-NH2", "source_text": "as §1, §2"}, "[11]": {"biological_target": "T17, BC2T Q12D library peptide (human)", "T17 peptide": "Ac-PDRKAAVSHWQD-NH2", "source_text": "as §1, §2"}, "[12]": {"biological_target": "T18, BC2T W10N library peptide (human)", "T18 construct": "also called BC2TW10X: N", "T18 peptide": "Ac-PDRKAAVSHNQQ-NH2", "source_text": "as §1, §2"}, "BC2T H9W library peptide": {"biological_target": "T19, BC2T H9W library peptide (human)", "T19 peptide": "Ac-PDRKAAVSWWQQ-NH2", "source_text": "as §1, §2"}, "[13]": {"biological_target": "T20, BC2T Q11H library peptide (human)", "T20 peptide": "Ac-PDRKAAVSHWHQ-NH2", "source_text": "as §1, §2"}}, "note": "Square brackets hold non-standard residues; d marks the D form. GABA = NCCCC(=O)O"}
{"binder": "BC2-Nb(R106E) (VHH, Headlock mutant; immobilized on beads in the library pulldown) VHH: QVQLVESGGGLVQPGGSLTLSCTASGFTLDHYDIGWFRQAPGKEREGVSCINNSDDDTYYADSVKGRFTIFMDNAKDTVYLQMNSLKPEDTAIYYCAEARGCKRGEYEYDFWGQGTQVTVSS", "values": [{"measurement": "ratio", "setting": "[1]", "value": 0.2}, {"measurement": "ratio", "setting": "[2]", "value": 1.2}, {"measurement": "ratio", "setting": "BC2T H9A library peptide", "value": 0.3}, {"measurement": "ratio", "setting": "[3]", "value": 0.3}, {"measurement": "ratio", "setting": "[4]", "value": 1}, {"measurement": "ratio", "setting": "BC2T S8W library peptide", "value": 0.9}, {"measurement": "ratio", "setting": "[5]", "value": 0.2}, {"measurement": "ratio", "setting": "[6]", "value": 0.1}, {"measurement": "ratio", "setting": "[7]", "value": 0.1}, {"measurement": "ratio", "setting": "[8]", "value": 1.3}, {"measurement": "ratio", "setting": "BC2T S8N library peptide", "value": 0.5}, {"measurement": "ratio", "setting": "[9]", "value": 0.2}, {"measurement": "ratio", "setting": "BC2T S8M library peptide", "value": 1}, {"measurement": "ratio", "setting": "[10]", "value": 0.1}, {"measurement": "ratio", "setting": "BC2T H9D library peptide", "value": 0.4}, {"measurement": "ratio", "setting": "BC2T H9V library peptide", "value": 0.5}, {"measurement": "ratio", "setting": "[11]", "value": 0.8}, {"measurement": "ratio", "setting": "[12]", "value": 1.2}, {"measurement": "ratio", "setting": "BC2T H9W library peptide", "value": 0.1}, {"measurement": "ratio", "setting": "[13]", "value": 0.2}]}
